By EC50 is commonly meant the concentration that produces a half-maximal response. Low readings indicate a more potent agent, high ones a less potent agent.

Assay [1] concerns the target T1, NP of A/California/07/2009(H1N1/H1S) (influenza A virus, NYMC X-181 derived …). In words: sandwich ELISA, capture IgG; NP of lysed virus titrated; HRP-NP17 detection. On the technique in general: ELISA stands for enzyme-linked immunosorbent assay.
For assay [2], the target named is T1, NP of A/California/07/2009(H1N1/H1S). In words: sandwich ELISA, capture IgG; NP of lysed virus titrated; HRP-NP16 detection.
Assay [3] has the same target. In words: ELISA on virus-infected fixed MDCK cells.

T1 sequence (P03466 whole entry): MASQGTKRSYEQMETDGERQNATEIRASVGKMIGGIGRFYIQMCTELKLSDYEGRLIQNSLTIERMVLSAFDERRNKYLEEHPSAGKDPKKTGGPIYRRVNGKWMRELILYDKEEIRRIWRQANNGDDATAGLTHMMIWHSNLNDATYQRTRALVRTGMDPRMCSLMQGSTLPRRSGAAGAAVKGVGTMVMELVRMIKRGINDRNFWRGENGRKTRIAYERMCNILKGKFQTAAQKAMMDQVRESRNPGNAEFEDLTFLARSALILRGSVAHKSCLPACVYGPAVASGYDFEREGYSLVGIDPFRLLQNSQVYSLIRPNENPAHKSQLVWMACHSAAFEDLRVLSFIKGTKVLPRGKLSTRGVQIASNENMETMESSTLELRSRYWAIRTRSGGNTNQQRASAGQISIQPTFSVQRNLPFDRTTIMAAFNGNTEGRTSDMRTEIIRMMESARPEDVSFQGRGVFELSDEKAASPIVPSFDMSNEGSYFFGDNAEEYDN

B1: NP13 (antibody, V domains shown)
VH: EVQLVESGGGLVQPGGSLRLSCAASGFTINNYGIHWVRQAPGKGLEWVASIGPYGGSTYYADSVKGRFTISADTSKNTAYLQMNSLRAEDTAVYYCARFGYFNWLDMDYWGQGTLVTVSS
VL: DIQMTQSPSSLSASVGDRVTITCRASQDVGYWVAWYQQKPGKAPKLLISSASGLYSGVPSRFSGSGSGTDFTLTISSLQPEDFATYYCQQGWDWPITFGQGTKVEIKR
For the molecule B1, the EC50 was 47.9 nM in assay [1], 168 nM in assay [2] and 1.68 nM in assay [3].

B2: NP12 (antibody, V domains shown)
VH: EVQLVESGGGLVQPGGSLRLSCAASGFTIDNGYIHWVRQAPGKGLEWVASIWPSWGSTYYADSVKGRFTISADTSKNTAYLQMNSLRAEDTAVYYCARGFYYYGDYWGQGTLVTVSS
VL: DIQMTQSPSSLSASVGDRVTITCRASQDVGGNVAWYQQKPGKAPKLLISSTAGLYSGVPSRFSGSGSGTDFTLTISSLQPEDFATYYCQQYYDFPLTFGQGTKVEIKR
For the molecule B2, the EC50 in assay [3] is 6.09 nM.

B3: NP21 (antibody, V domains shown)
VH: EVQLVESGGGLVQPGGSLRLSCAASGFTINGYGIHWVRQAPGKGLEWVAGIWPYGGSTFYADSVKGRFTISADTSKNTAYLQMNSLRAEDTAVYYCARFYNNHGGIMDYWGQGTLVTVSS
VL: DIQMTQSPSSLSASVGDRVTITCRASQDVYFYVAWYQQKPGKAPKLLIYGSRWLYSGVPSRFSGSGSGTDFTLTISSLQPEDFATYYCQQYSNFPVTFGQGTKVEIKR
Take B3: the results for the EC50 in assay [1], in assay [2] and in assay [3] were 0.815 nM, 2.67 nM and 0.73 nM, respectively.

B4: NP15 (antibody, V domains shown)
VH: EVQLVESGGGLVQPGGSLRLSCAASGFTISNWYIHWVRQAPGKGLEWVAGIGPYGGSTYYADSVKGRFTISADTSKNTAYLQMNSLRAEDTAVYYCARFHWDHLHGMDYWGQGTLVTVSS
VL: DIQMTQSPSSLSASVGDRVTITCRASQDVDNNVAWYQQKPGKAPKLLISYSTGLYSGVPSRFSGSGSGTDFTLTISSLQPEDFATYYCQQYWNYPITFGQGTKVEIKR
For the molecule B4, the EC50 turned out to be 0.806 nM in assay [1], 2.79 nM in assay [2] and 0.249 nM in assay [3].

B5: NP14 (antibody, V domains shown)
VH: EVQLVESGGGLVQPGGSLRLSCAASGFTIDNGGIHWVRQAPGKGLEWVASIWPSWGSTSYADSVKGRFTISADTSKNTAYLQMNSLRAEDTAVYYCARFNFGVFGVMDYWGQGTLVTVSS
VL: DIQMTQSPSSLSASVGDRVTITCRASQDVDNDVAWYQQKPGKAPKLLIYGPRGLYSGVPSRFSGSGSGTDFTLTISSLQPEDFATYYCQQYSSWPLTFGQGTKVEIKR
In turn, B5 registered an EC50 in assay [3] of 3.43 nM.

B6: NP19 (antibody, V domains shown)
VH: EVQLVESGGGLVQPGGSLRLSCAASGFTISSWGIHWVRQAPGKGLEWVAGIGPFWGYTSYADSVKGRFTISADTSKNTAYLQMNSLRAEDTAVYYCARFGVDNYGYMDYWGQGTLVTVSS
VL: DIQMTQSPSSLSASVGDRVTITCRASQDVSGWVAWYQQKPGKAPKLLISWSTGLYSGVPSRFSGSGSGTDFTLTISSLQPEDFATYYCQQYFNFPVTFGQGTKVEIKR
In the case of B6, the concentration giving a half-maximal response (EC50) turned out to be 0.863 nM in assay [1], 5.37 nM in assay [2] and 0.304 nM in assay [3].

B7: NP6 (antibody, V domains shown)
VH: EVQLVESGGGLVQPGGSLRLSCAASGFTINDGSIHWVRQAPGKGLEWVAGIGPFGGFTYYADSVKGRFTISADTSKNTAYLQMNSLRAEDTAVYYCARSGYSGSFDYWGQGTLVTVSS
VL: DIQMTQSPSSLSASVGDRVTITCRASQDVYFGVAWYQQKPGKAPKLLIYGTSYLYSGVPSRFSGSGSGTDFTLTISSLQPEDFATYYCQQFSNWPITFGQGTKVEIKR
For B7, the EC50 in assay [1] was 3.07 nM; in assay [2], 3.12 nM; in assay [3], 6.46 nM.

B8: NP17 (antibody, V domains shown)
VH: EVQLVESGGGLVQPGGSLRLSCAASGFTISGGSIHWVRQAPGKGLEWVASIWPFGGSTFYADSVKGRFTISADTSKNTAYLQMNSLRAEDTAVYYCARFGHGHNVIMDYWGQGTLVTVSS
VL: DIQMTQSPSSLSASVGDRVTITCRASQDVGYSVAWYQQKPGKAPKLLISSPGGLYSGVPSRFSGSGSGTDFTLTISSLQPEDFATYYCQQYYDYPVTFGQGTKVEIKR
As for B8, the EC50 came to 1.02 nM in assay [1], 3.28 nM in assay [2] and 28.7 nM in assay [3].

B9: NP16 (antibody, V domains shown)
VH: EVQLVESGGGLVQPGGSLRLSCAASGFTIGNSGIHWVRQAPGKGLEWVAWIGPYWGFTSYADSVKGRFTISADTSKNTAYLQMNSLRAEDTAVYYCARFGNHWHLFMDYWGQGTLVTVSS
VL: DIQMTQSPSSLSASVGDRVTITCRASQDVGSYVAWYQQKPGKAPKLLISWTTGLYSGVPSRFSGSGSGTDFTLTISSLQPEDFATYYCQQYFSYPVTFGQGTKVEIKR
Turning to B9, the results for the EC50 in assay [1], in assay [2] and in assay [3] were 0.919 nM, 4.41 nM and 0.239 nM, respectively.

B10: NP10 (antibody, V domains shown)
VH: EVQLVESGGGLVQPGGSLRLSCAASGFTIDNGSIHWVRQAPGKGLEWVAWIWPFGGSTSYADSVKGRFTISADTSKNTAYLQMNSLRAEDTAVYYCARSWSSGYDYWGQGTLVTVSS
VL: DIQMTQSPSSLSASVGDRVTITCRASQDVSWSVAWYQQKPGKAPKLLISGSTWLYSGVPSRFSGSGSGTDFTLTISSLQPEDFATYYCQQYSNSPITFGQGTKVEIKR
Take B10: the results for the EC50 in assay [1] and in assay [2] were 0.798 nM and 3.3 nM, respectively.

B11: NP8 (antibody, V domains shown)
VH: EVQLVESGGGLVQPGGSLRLSCAASGFTINSFGIHWVRQAPGKGLEWVAGIGPFGGSTFYADSVKGRFTISADTSKNTAYLQMNSLRAEDTAVYYCARGFYWFDYWGQGTLVTVSS
VL: DIQMTQSPSSLSASVGDRVTITCRASQDVDDSVAWYQQKPGKAPKLLIYWTRYLYSGVPSRFSGSGSGTDFTLTISSLQPEDFATYYCQQGYNYPLTFGQGTKVEIKR
Regarding B11, the EC50 in assay [1] turned out to be 0.752 nM; in assay [2] it was 2.33 nM.

B12: NP3 (antibody, V domains shown)
VH: EVQLVESGGGLVQPGGSLRLSCAASGFTISNYGIHWVRQAPGKGLEWVAGIWPFGGFTSYADSVKGRFTISADTSKNTAYLQMNSLRAEDTAVYYCARFHWNDHGYMDYWGQGTLVTVSS
VL: DIQMTQSPSSLSASVGDRVTITCRASQDVGWYVAWYQQKPGKAPKLLIYSTTGLYSGVPSRFSGSGSGTDFTLTISSLQPEDFATYYCQQYYNYPITFGQGTKVEIKR
For B12, the EC50 was 0.834 nM in assay [1], 1.96 nM in assay [2] and 0.55 nM in assay [3].

B13: NP18 (antibody, V domains shown)
VH: EVQLVESGGGLVQPGGSLRLSCAASGFTISGGGIHWVRQAPGKGLEWVASIWPSWGSTSYADSVKGRFTISADTSKNTAYLQMNSLRAEDTAVYYCARFHNGGFLVMDYWGQGTLVTVSS
VL: DIQMTQSSSSLSASVGDRVTITCRASQDVGYYVAWYQQKPGKAPKLLIYGPRFLYSGVPSRFSGSGSGTDFTLTISSLQPEDFATYYCQQYSNWPITFGQGTKVEIKR
Turning to B13, it took 0.168 nM to reach a half-maximal effect in assay [3] (EC50).

B14: NP7 (antibody, V domains shown)
VH: EVQLVESGGGLVQPGGSLRLSCAASGFTISNGGIHWVRQAPGKGLEWVAGIGPYGGFTSYADSVKGRFTISADTSKNTAYLQMNSLRAEDTAVYYCARFYSNYYGYHGVMDYWGQGTLVTVSS
VL: DIQMTQSPSSLSASVGDRVTITCRASQDVFGWVAWYQQKPGKAPKLLISYSASLYSGVPSRFSGSGSGTDFTLTISSLQPEDFATYYCQQYFNYPLTFGQGTKVEIKR
As for B14, the EC50 in assay [1] amounted to 0.9 nM; in assay [2] it was 2.36 nM.

B15: NP5 (antibody, V domains shown)
VH: EVQLVESGGGLVQPGGSLRLSCAASGFTISNGSIHWVRQAPGKGLEWVAGIWPSGGSTSYADSVKGRFTISADTINNSAYLQMNSLRAEDTAVYYCARWNYWGQGTLVTVSS
VL: DIQMTQSPSSLSASVGDRVTITCRASQDVGWSVAWYQQKPGKAPKLLIYGSRWLYSGVPSRFSGSGSGTDFTLTISSLQPEDFATYYCQQGYNGPLTFGQGTKVEIKR
In the case of B15, the EC50 was 0.918 nM in assay [1] and 3.32 nM in assay [2].

B16: NP9 (antibody, V domains shown)
VH: EVQLVESGGGLVQPGGSLRLSCAASGFTINNGWIHWVRQAPGKGLEWVAGIGPYWGFTSYADSVKGRFMISADTSKNTAYLQMNSLRAEDTAVYYCARFDSDHDHHYSYYYYYDNGYMDYWGQGTLVTVSS
VL: DIQMTQSPSSLSASVGDRVTITCRASQDVWFSVAWYQQKPGKAPKLLIYGTTSLYSGVPSRFSGSGSGTDFTLTISSLQPEDFATYYCQQYFNYPLTFGQGTKVEIKR
Consider B16, for which the results for the EC50 in assay [2] and in assay [3] were 53.9 nM and 2.14 nM, respectively.

B17: NP4 (antibody, V domains shown)
VH: EVQLVESGGGLVQPGGSLRLSCAASGFTISNSSIHWVRQAPGKGLEWVAGIGPSGGYTFYADSVKGRFTISADTSKNTAYLQMNSLRAEDTAVYYCARFHSHNSYYSYSHYGYMDYWGQGTLVTVSS
VL: DIQMTQSPSSLSASVGDRVTITCRASQDVGWGVAWYQQKPGKAPKLLISGPSSLYSGVPSRFSGSGSGTDFTLTISSLQPEDFATYYCQQYFNYPITFGQGTKVEIKR
Regarding B17, the EC50 in assay [1] worked out at 0.862 nM; in assay [2] it was 2.11 nM; in assay [3] it was 4.02 nM.

(Values after patent publication US20230212554A1 (published 2023).)
